The target of this experiment is E1E2 (isolate H77), produced by transfected 293T cells (hepatitis C virus isolate H77 (genotype 1a)) (UniProt P27958). The experiment can be described thus: cell-based or functional assay.

Consider MAb AR3A (antibody), for which the IC50 titer, neutralization of HCVpp-H77 was found to be 0.4 mg/L. In turn, MAb AR3B (antibody) displayed an IC50 titer, neutralization of HCVpp-H77 of 1 mg/L.

The values are drawn from patent WO2010047829A1.
